From IntAct's records for PubMed 29039417

B1: BBSome complex member BBS4 (Homo sapiens), Q96RK4 (parent)
chain: MAEERVATRTQFPVSTESQKPRQKKAPEFPILEKQNWLIHLHYIRKDYEACKAVIKEQLQETQGLCEYAIYVQALIFRLEGNIQESLELFQTCAVLSPQSADNLKQVARSLFLLGKHKAAIEVYNEAAKLNQKDWEISHNLGVCYIYLKQFNKAQDQLHNALNLNRHDLTYIMLGKIHLLEGDLDKAIEVYKKAVEFSPENTELLTTLGLLYLQLGIYQKAFEHLGNALTYDPTNYKAILAAGSMMQTHGDFDVALTKYRVVACAVPESPPLWNNIGMCFFGKKKYVAAISCLKRANYLAPFDWKILYNLGLVHLTMQQYASAFHFLSAAINFQPKMGELYMLLAVALTNLEDIENAKRAYAEAVHLDKCNPLVNLNYAVLLYNQGEKKNALAQYQEMEKKVSLLKDNSSLEFDSEMVEMAQKLGAALQVGEALVWTKPVKDPKSKHQTTSTSKPASFQQPLGSNQALGQAMSSAAAYRTLPSGAGGTSQFTKPPSLPLEPEPAVESSPTETSEQIREK
partner: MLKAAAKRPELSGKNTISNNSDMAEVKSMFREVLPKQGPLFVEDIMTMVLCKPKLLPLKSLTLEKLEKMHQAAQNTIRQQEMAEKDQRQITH

Variants of: B1
Conditions: with bbip1_human BBIP1, A8MTZ0
For V313A, the “effect of a mutation on the interaction” value was “with no effect”. For V313E, the “effect of a mutation on the interaction” value was “with no effect”. For V313K, the “effect of a mutation on the interaction” value was “with no effect”. For S322K, the “effect of a mutation on the interaction” value was “with no effect”. With S322A the “effect of a mutation on the interaction” value was “with no effect”. For S322E, the “effect of a mutation on the interaction” value was “with no effect”. For Q319K, the “effect of a mutation on the interaction” value was “with no effect”. With Q319A the “effect of a mutation on the interaction” value was “with no effect”. For Q319E, the “effect of a mutation on the interaction” value was “with no effect”. G311K was tested, and the “effect of a mutation on the interaction” value was “with no effect”. For G311E, the “effect of a mutation on the interaction” value was “with no effect”. With G311A the “effect of a mutation on the interaction” value was “with no effect”. G311D was tested, and the “effect of a mutation on the interaction” value was “disrupting interaction strength”. In the case of L327K, the “effect of a mutation on the interaction” value is reported as “with no effect”. For L327H, the “effect of a mutation on the interaction” value was “disrupting interaction strength”. For L327A, the “effect of a mutation on the interaction” value was “with no effect”. In the case of L327R, the “effect of a mutation on the interaction” value is reported as “disrupting interaction strength”. For L327E, the “effect of a mutation on the interaction” value was “with no effect”. With Y308E the “effect of a mutation on the interaction” value was “with no effect”. Y308A was tested, and the “effect of a mutation on the interaction” value was “with no effect”. Y308K was tested, and the “effect of a mutation on the interaction” value was “with no effect”. In the case of F326L, the “effect of a mutation on the interaction” value is reported as “disrupting interaction strength”. With F326A the “effect of a mutation on the interaction” value was “with no effect”. For F326K, the “effect of a mutation on the interaction” value was “with no effect”. With F326E the “effect of a mutation on the interaction” value was “with no effect”. With F326S the “effect of a mutation on the interaction” value was “disrupting interaction strength”. With I306A the “effect of a mutation on the interaction” value was “with no effect”. In the case of I306E, the “effect of a mutation on the interaction” value is reported as “with no effect”. For I306K, the “effect of a mutation on the interaction” value was “with no effect”. In the case of I306T, the “effect of a mutation on the interaction” value is reported as “disrupting interaction strength”. With I306P the “effect of a mutation on the interaction” value was “disrupting interaction strength”. A321K was tested, and the “effect of a mutation on the interaction” value was “with no effect”. A321E was tested, and the “effect of a mutation on the interaction” value was “with no effect”. For N309D, the “effect of a mutation on the interaction” value was “disrupting interaction strength”. In the case of N309E, the “effect of a mutation on the interaction” value is reported as “with no effect”. With N309K the “effect of a mutation on the interaction” value was “with no effect”. N309A was tested, and the “effect of a mutation on the interaction” value was “with no effect”. With L307P the “effect of a mutation on the interaction” value was “disrupting interaction strength”. L307K was tested, and the “effect of a mutation on the interaction” value was “with no effect”. For L307A, the “effect of a mutation on the interaction” value was “with no effect”. L307E was tested, and the “effect of a mutation on the interaction” value was “with no effect”. In the case of L310S, the “effect of a mutation on the interaction” value is reported as “disrupting interaction strength”. In the case of L310K, the “effect of a mutation on the interaction” value is reported as “with no effect”. For L310W, the “effect of a mutation on the interaction” value was “disrupting interaction strength”. In the case of L310E, the “effect of a mutation on the interaction” value is reported as “with no effect”. L310A was tested, and the “effect of a mutation on the interaction” value was “with no effect”. L315E was tested, and the “effect of a mutation on the interaction” value was “with no effect”. With L315K the “effect of a mutation on the interaction” value was “with no effect”. With L315A the “effect of a mutation on the interaction” value was “with no effect”. For L315S, the “effect of a mutation on the interaction” value was “disrupting interaction strength”. H325K was tested, and the “effect of a mutation on the interaction” value was “with no effect”. For H325A, the “effect of a mutation on the interaction” value was “with no effect”. In the case of H325E, the “effect of a mutation on the interaction” value is reported as “with no effect”. In the case of T316K, the “effect of a mutation on the interaction” value is reported as “with no effect”. T316E was tested, and the “effect of a mutation on the interaction” value was “with no effect”. T316A was tested, and the “effect of a mutation on the interaction” value was “with no effect”. H314A was tested, and the “effect of a mutation on the interaction” value was “with no effect”. H314P was tested, and the “effect of a mutation on the interaction” value was “disrupting interaction strength”. With H314E the “effect of a mutation on the interaction” value was “with no effect”. With H314K the “effect of a mutation on the interaction” value was “with no effect”. With Q318E the “effect of a mutation on the interaction” value was “with no effect”. For Q318A, the “effect of a mutation on the interaction” value was “with no effect”. In the case of Q318K, the “effect of a mutation on the interaction” value is reported as “with no effect”. A323K was tested, and the “effect of a mutation on the interaction” value was “with no effect”. For A323E, the “effect of a mutation on the interaction” value was “with no effect”. In the case of A323V, the “effect of a mutation on the interaction” value is reported as “disrupting interaction strength”. A323T was tested, and the “effect of a mutation on the interaction” value was “disrupting interaction strength”. M317A was tested, and the “effect of a mutation on the interaction” value was “with no effect”. With M317K the “effect of a mutation on the interaction” value was “with no effect”. With M317E the “effect of a mutation on the interaction” value was “with no effect”. For L312T, the “effect of a mutation on the interaction” value was “disrupting interaction strength”. For L312P, the “effect of a mutation on the interaction” value was “disrupting interaction strength”. L312E was tested, and the “effect of a mutation on the interaction” value was “with no effect”. L312A was tested, and the “effect of a mutation on the interaction” value was “with no effect”. With L312H the “effect of a mutation on the interaction” value was “disrupting interaction strength”. With L312K the “effect of a mutation on the interaction” value was “with no effect”. In the case of Y320C, the “effect of a mutation on the interaction” value is reported as “disrupting interaction strength”. For Y320A, the “effect of a mutation on the interaction” value was “with no effect”. In the case of Y320E, the “effect of a mutation on the interaction” value is reported as “with no effect”. With Y320K the “effect of a mutation on the interaction” value was “with no effect”. F324P was tested, and the “effect of a mutation on the interaction” value was “disrupting interaction strength”. With F324A the “effect of a mutation on the interaction” value was “with no effect”. In the case of F324E, the “effect of a mutation on the interaction” value is reported as “with no effect”. F324K was tested, and the “effect of a mutation on the interaction” value was “with no effect”.
